This note sets out measurements from publication PMC5085234, “Monomeric gremlin is a novel vascular endothelial growth factor receptor-2 antagonist” (Oncotarget, 2016).

B3: his-tagged wild-type gremlin (gremlin^WT), rat (natural protein, UniProt O35793 25-184, looked up)
chain: KKKGSQGAIPPPDKAQHNDSEQTQSPPQPGSRTRGRGQGRGTAMPGEEVLESSQEALHVTERKYLKRDWCKTQPLKQTIHEEGCNSRTIINRFCYGQCNSFYIPRHIRKEEGSFQSCSFCKPKKFTTMMVTLNCPELQPPTKKKRVTRVKQCRCISIDLD
notes: secreted into the medium; covalent homodimer through Cys141; The IMAC-purified preparation holds monomer and dimer (used for non-reducing SDS-PAGE and SEC); the heparin 1.2 M NaCl fraction holds only the disulfide-linked dimer (98.5% purity) and is the form used in ELISA, SPR and cell assays; N-glycosylated and non-glycosylated forms are present; also called gremlin^WT dimer; dimeric gremlin^WT; …

The target of data set [1] is extracellular domain D1-7 of human VEGFR2 (ECD-VEGFR2) (human). The experiment in a line: SPR; BIAcore X; ECD-VEGFR2 immobilized on CM5 sensorchip (0.036-0.064 pmol/mm^2); gremlin 100 ng/mL to 4 ug/mL injected in HBS-EP; equilibrium responses fitted to the Langmuir equation for monovalent binding.
Data set [2] concerns the molecule itself. The data set can be described thus: non-reducing SDS-PAGE with Western blot; conditioned medium of FGF2-T-MAE cells (treated with increasing H2O2 for 1 hour, then 4 hours fresh medium) immunoprecipitated with anti-gremlin antibody, WB under non-reducing conditions.
Data set [3] deals with the molecule itself. The data set can be described thus: non-reducing SDS-PAGE with Western blot; recombinant his-tagged gremlin purified by IMAC (and heparin-affinity chromatography), SDS-PAGE without beta-mercaptoethanol, anti-gremlin WB, silver staining.
In data set [4] the target is T1, his-tagged gremlin^C141A mutant, rat (rat, UniProt O35793 25-184, C141A).
T1 construct: secreted into the medium; monomer; also called gremlin^C141A monomer; monomeric gremlin^C141A; not shown: His tag, C-terminal, kept
T1 sequence (looked up): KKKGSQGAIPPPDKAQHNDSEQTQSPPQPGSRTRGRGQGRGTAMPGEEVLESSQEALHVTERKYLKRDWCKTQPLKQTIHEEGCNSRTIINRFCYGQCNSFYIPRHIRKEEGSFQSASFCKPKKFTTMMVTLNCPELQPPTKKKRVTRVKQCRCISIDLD
The data set can be described thus: ELISA; 96-well plates coated with 250 ng/mL of human BMP4, increasing concentrations of gremlin, bound gremlin detected with anti-gremlin antibody. To be noted: both partners purified.

Data set [5] has as its target B3. The description is as above. The following applies: both partners purified.

B1: his-tagged gremlin^C141A mutant, rat (natural protein)
chain: KKKGSQGAIPPPDKAQHNDSEQTQSPPQPGSRTRGRGQGRGTAMPGEEVLESSQEALHVTERKYLKRDWCKTQPLKQTIHEEGCNSRTIINRFCYGQCNSFYIPRHIRKEEGSFQSASFCKPKKFTTMMVTLNCPELQPPTKKKRVTRVKQCRCISIDLD
On to B1, for which, in data set [1], the Kd was 73 nM.

B2: endogenous murine gremlin (natural protein, UniProt O70326 25-184, looked up)
chain: KKKGSQGAIPPPDKAQHNDSEQTQSPPQPGSRTRGRGQGRGTAMPGEEVLESSQEALHVTERKYLKRDWCKTQPLKQTIHEEGCNSRTIINRFCYGQCNSFYIPRHIRKEEGSFQSCSFCKPKKFTTMMVTLNCPELQPPTKKKRVTRVKQCRCISIDLD
notes: gremlin, mouse, endogenous; immunoprecipitated with anti-gremlin antibody; Seen as 20-24 kDa monomers and 40-44 kDa dimers under non-reducing conditions; source: endogenous, lysates of healthy C57BL/6 murine organs; endogenous, conditioned medium of FGF2-T-MAE cells
As for B2, the “stoichiometry N” value in data set [2] was 2.

On to B3, for which the “stoichiometry N” value in data set [3] was 2. This molecule also had a dissociation constant (Kd) in data set [1] of 73 nM.

B4: human BMP4 (ligand, UniProt P12644 293-408, looked up)
chain: SPKHHSQRARKKNKNCRRHSLYVDFSDVGWNDWIVAPPGYQAFYCHGDCPFPLADHLNSTNHAIVQTLVNSVNSSIPKACCVPTELSAISMLYLDEYDKVVLKNYQEMVVEGCGCR
notes: bone morphogenetic protein 4, human; the ELISA paragraph says only human BMP4; also called immobilized BMP4; source: bought: R&D
For B4, the binding result in data set [4] and in data set [5] was “binds” in each case.
